The labels stand for the following.
B1: Glycophorin A TM domain (SNGpATM) TMD (protein)
chain: GERVQLAHHFSEPEITLIIFGVMAGVIGTILLISYGIRRLIKKSPSDVKPLPSPDTDVPLSSVEIENPETSDQ

The data set “steric trap, DM micelles” concerns the molecule itself. The experiment in a line: steric trap, DM micelles.
Data set [1] deals with the molecule itself. Description: steric trap, PC bilayers, L/P 1000.
The data set “steric trap, PS/PC” concerns the molecule itself. The experiment in a line: steric trap, PS/PC.
The data set “steric trap, PE/PG/PC” deals with the molecule itself. The experiment in a line: steric trap, PE/PG/PC.
Data set [2] deals with the molecule itself. Description: steric trap, PG/PC.
Data set [3] concerns the molecule itself. Description: steric trap, PG/PC. This is another data set of the same source.
The data set “steric trap, PE/PC” concerns the molecule itself. The experiment in a line: steric trap, PE/PC.
Data set [4] deals with the molecule itself. Description: steric trap, E. coli lipid bilayers, L/P 1500.
Data set [5] concerns the molecule itself. The experiment in a line: steric trap, PG/PC. This is another data set of the same source.
Data set [6] concerns the molecule itself. The experiment in a line: steric trap, PC bilayers, L/P 1400-1600, no IMP.
The data set “steric trap, lysoPC/PC” concerns the molecule itself. The experiment in a line: steric trap, lysoPC/PC.
The data set “steric trap” concerns the molecule itself. The experiment in a line: steric trap.
Data set [7] concerns the target B1. The experiment in a line: steric trap, PC bilayers, L/P 1400-1600.

B1: the dissociation constant (Kd) in the data set “steric trap, DM micelles” is 170 nM; in data set [1], 0.0015 nM; in “steric trap, PS/PC”, 25 nM; in “steric trap, PE/PG/PC” it was 5.1 nM; in the data set “steric trap, PG/PC [2]”, 14 nM; in “steric trap, PG/PC [3]”, 32 nM. For the same molecule, the dissociation constant (Kd) amounted to 0.00021 nM in the data set “steric trap, PE/PC”; 10 nM in data set [4]; 47 nM in “steric trap, PG/PC [5]”; 0.003 nM in [6]; 6 nM in the data set “steric trap, lysoPC/PC”; 11 nM in the data set “steric trap”.

B2: Glycophorin A TM domain (SNGpATM) TMD (protein)
chain: GERVQLAHHFSEPEITLIIFGVMAGVIGTILLISYGIRRLIKKSPSDVKPLPSPDTDVPLSSVEIENPETSDQ
modifications: E. coli inner membrane proteins at mass ratio 1.0
With B2, the dissociation constant (Kd) in [7] was 9.2 nM.

In general, Kd refers to the concentration at which binding is half-saturated. A higher Kd goes with a looser complex.

The values are drawn from publication PMC3140635 (2012).
